Test results as given in patent publication US20240197828A1, “Chimeric molecule to treat sepsis and other inflammatory conditions” (THE FEINSTEIN INSTITUTES FOR MEDICAL RESEARCH, priority 2022, published 2024).

Tests used:
RAW264.7 cells = test: eCIRP-induced cytokine release in RAW264.7 cells (ELISA of supernatants); assay type: cell-based, mouse; settings: RAW264.7, rmCIRP 1 μg/mL, 4 hours
Procedure: FIG. 2. Effects of MOP peptides on TNFα levels. RAW264.7 macrophages were cultured and treated with either volume-equivalent PBS, recombinant murine (rm) CIRP (eCIRP; 1 μg/mL), or rmCIRP with each respective peptide (10 μg/mL). After 4 hours, cell supernatants were assessed for TNFα levels by ELISA. Experiments were performed 3 times, and all data were used for analysis. Data are expressed as mean±SEM and compared by one-way ANOVA and SNK test. *p<0.05 vs. PBS, #p<0.05 vs. eCIRP.
FIG. 4. eCIRP-induced inflammation is attenuated by MOP3. RAW264.7 cells were treated according to respective groups: PBS (volume equivalent), rmCIRP (1 μg/mL), or rmCIRP with MOP3 at increasing doses. After 4 hours, cell supernatants were analyzed for TNFα levels by ELISA. […] Data are expressed as mean #SEM and compared by one-way ANOVA and SNK test. *p<0.05 vs. PBS, #p<0.05 vs. eCIRP.
Computational modeling was used to determine the likely domain of MFG-E8's binding to eCIRP. […] Binding of MOP3 to CIRP was quantified using Surface Plasmon Resonance (SPR) analysis. […] After 1 h, cells were fixed and analyzed for intracellular FITC-rmCIRP by flow cytometry. […] After 4 h, cell culture supernatants were analyzed for inflammatory cytokine, TNFα. […]
The mouse macrophage cell culture supernatants were analyzed for cytokine levels using ELISA kits (BD Biosciences, CA). […]

RAW264.7 macrophages = test: Intracellular uptake of FITC-rmCIRP by macrophages (flow cytometry, confocal microscopy); assay type: cell-based, mouse
Procedure: FIG. 3. Effects of MOP peptides MOP-3, MOP-8 and MOP-14 on eCIRP. Flow cytometry experiment whereby RAW264.7 macrophages were treated for 1 hour according to respective group: PBS (volume-equivalent), FITC-rmCIRP (1 μg/mL), or a mixture of FITC-rmCIRP (1 μg/mL) with each respective peptide (10 μg/mL) after co-incubating for 30 minutes. Intracellular FITC-rmCIRP was analyzed by flow cytometry. Median fluorescence intensity (MFI) reported as percentage relative to PBS-treated RAW264.7 cells. Data from two independent experiments are expressed as mean±SEM and compared by one-way ANOVA and SNK test. *p<0.05 vs. PBS, #p<0.05 vs. eCIRP.
Computational modeling was used to determine the likely domain of MFG-E8's binding to eCIRP. The known amino acid (AA) sequence of this domain was used to develop and test potential therapeutic peptides. An MFG-E8 derived oligopeptide, MOP3, was developed based on 15 AA from MFG-E8 discoidin 2 domain (mimicking MFG-E8's C-terminal) and tagged with the 3 AA, RGD, (mimicking MFG-E8's binding capacity for the integrin receptor at the N-terminal). Binding of MOP3 to CIRP was quantified using Surface Plasmon Resonance (SPR) analysis. Macrophages (RAW264.7 cells) were treated with FITC-recombinant mouse (rm)-CIRP or co-incubated MOP3 and FITC-rmCIRP with and without a. Br-integrin Ab. After 1 h, cells were fixed and analyzed for intracellular FITC-rmCIRP by flow cytometry. Macrophages were stimulated with rmCIRP or co-incubated mixture of MOP3 and rmCIRP. After 4 h, cell culture supernatants were analyzed for inflammatory cytokine, TNFα.
Mouse macrophage cell line, RAW264.7 cells were obtained from American Type Culture Collection (ATCC) and cultured in DMEM media with 10% FBS, 1% penicillin and streptomycin, and 1% glutamine. Cells were kept in 37° C. incubator under humidified conditions containing 5% CO2.
rmCIRP was labeled using a FITC Conjugation Kit (Abcam, ab188285), and rmMFG-E8 was labeled using Alexa Fluor Conjugation Kit (Abcam, ab269821), both according to respective manufacturer's instructions.
In order to visualize cellular uptake, we initially utilized TRITC-BSA as an internal probe, as BSA is taken up into cells primarily by endocytosis and retained intracellularly after fixation (27, 28). For further visualization of intracellular localization, we utilized LAMP1 primary antibody (as it is distributed among endolysosomal organelles and serves as a marker for lysosomal compartments) (29), and utilized lysotracker in live cell experiments (as it allows for imaging of dynamics of lysosome vesicle movements) (30). […] Images were quantified and analyzed using Image J, FIJI.(31) Flow cytometry. […]

B1: milk fat globule-epidermal growth factor—factor VIII (protein, listed as Mus musculus)
chain: MQVSRVLAALCGMLLCASGLFAASGDFCDSSLCLNGGTCLTGQDNDIYCLCPEGFTGLVCNETERGPCSPNPCYNDAKCLVTLDTQRGDIFTEYICQCPVGYSGIHCETETNYYNLDGEYMFTTAVPNTAVPTPAPTPDLSNNLASRCSTQLGMEGGAIADSQISASSVYMGFMGLQRWGPELARLYRTGIVNAWTASNYDSKPWIQVNLLRKMRVSGVMTQGASRAGRAEYLKTFKVAYSLDGRKFEFIQDESGGDKEFLGNLDNNSLKVNMFNPTLEAQYIKLYPVSCHRGCTLRFELLGCELHGCSEPLGLKNNTIPDSQMSASSSYKTWNLRAFGWYPHLGRLDNQGKINAWTAQSNSAKEWLQVDLGTQRQVTGIITQGARDFGHIQYVASYKVAHSDDGVQWTVYEEQGSSKVFQGNLDNNSHKKNIFEKPFMARYVRVLPVSWHNRITLRLELLGC
IL-6 levels in cell supernatants (RAW264.7 cells; vs eCIRP alone): attenuated these levels in a dose-dependent manner
TNFα levels in cell supernatants (RAW264.7 cells; vs rmCIRP alone): attenuated these levels in a dose-dependent manner
FITC-eCIRP uptake (confocal fluorescence microscopy) (RAW264.7 macrophages; RAW264.7, 4 hours, vs FITC-eCIRP alone): marked increase of FITC-eCIRP uptake
intracellular FITC-rmCIRP uptake (flow cytometry) (RAW264.7 macrophages; RAW264.7, FITC-rmCIRP 1 μg/mL co-incubated with test substance (peptide 10 μg/mL), 1 hour, vs FITC-rmCIRP alone): enhanced internalization of FITC-eCIRP
intracellular FITC-eCIRP with αvβ3-integrin neutralizing antibody (confocal fluorescence microscopy) (RAW264.7 macrophages; RAW264.7, vs IgG isotype control): remarkably reduced
intracellular FITC-rmCIRP uptake with αvβ3-integrin blocking antibody (flow cytometry) (RAW264.7 macrophages; RAW264.7, αvβ3-integrin antibody 0.5 μg/mL): significantly reduced
